Test results taken from article PMC8565327, “A dominant-negative SOX18 mutant disrupts multiple regulatory layers essential to transcription factor activity” (Nucleic Acids Research, 2021).

Legend:
[1] = biological target: T1, SOX7-eGFP, Q9BT81; experiment: cross-raster image correlation spectroscopy (cRICS); living HeLa cell nuclei, 37°C, transiently transfected; two colours (JF549 + JF646 on HaloTag, eGFP + JF646, or snap646 + JF549); fraction of molecules that move together; details: other: cross-raster image correlation spectroscopy (cRICS)
T1 chain: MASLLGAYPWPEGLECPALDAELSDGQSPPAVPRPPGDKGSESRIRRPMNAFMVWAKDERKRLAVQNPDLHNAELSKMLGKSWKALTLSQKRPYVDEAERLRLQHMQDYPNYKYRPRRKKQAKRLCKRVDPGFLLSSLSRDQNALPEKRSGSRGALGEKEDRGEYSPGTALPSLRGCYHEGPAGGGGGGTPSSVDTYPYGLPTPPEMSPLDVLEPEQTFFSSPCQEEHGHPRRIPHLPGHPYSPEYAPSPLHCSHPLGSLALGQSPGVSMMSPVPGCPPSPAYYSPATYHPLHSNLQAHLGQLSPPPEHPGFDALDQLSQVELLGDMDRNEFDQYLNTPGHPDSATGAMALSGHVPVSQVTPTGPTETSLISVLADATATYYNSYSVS

[2] = biological target: the molecule itself; experiment: number and brightness (N&B); living HeLa cell nuclei, 37°C; cells with low to medium expression, 1 μM JF549 Halo-tag dye; monomer brightness calibrated on HALO-SOX7

B1: HALO-SOX18 (protein)
chain: MQRSPPGYGAQDDPPSRRDCAWAPGIGAAAEARGLPVTNVSPTSPASPSSLPRSPPRSPESGRYGFGRGERQTADELRIRRPMNAFMVWAKDERKRLAQQNPDLHNAVLSKMLGKAWKELNTAEKRPFVEEAERLRVQHLRDHPNYKYRPRRKKQARKVRRLEPGLLLPGLVQPSAPPEAFAAASGSARSFRELPTLGAEFDGLGLPTPERSPLDGLEPGEASFFPPPLAPEDCALRAFRAPYAPELARDPSFCYGAPLAEALRTAPPAAPLAGLYYGTLGTPGPFPNPLSPPPESPSLEGTEQLEPTADLWADVDLTEFDQYLNCSRTRPDATTLPYHVALAKLGPRAMSCPEESSLISALSDASSAVYYSACISG
[1]
  percent heterodimer: SOX7/SOX18 (18.5%)

B2: HALO-SOX18 (natural protein, UniProt P43680 1-377, looked up)
chain: B1 chain
modifications: JF549 and/or JF646 Halo-tag dye on the HaloTag
notes: SOX18 wild type from the plasmid pReceiver-M49(HaloTag-SOX18) of GeneCopoeia; In the functional row with MEF2C the protein was untagged-SOX18 from the same plasmid without the HaloTag; also called HaloTag-SOX18; pReceiver-M49(HaloTag-SOX18); source: HeLa, transiently transfected, in living cells
[2]
  stoichiometry N: 2
